# ± gives the uncertainty stated by the source.
# Assay: self-splicing fitness, log relative to wild type (ln ratio); higher = more splicing; Tetrahymena group I intron in knt gene, E. coli kanamycin selection, DiMSum; sequences stand for … in CUCUCU…GGAGGGAAAAGUUAUCAGGCAUGCACCUGGUAGCUAGUCUUUAAACCAAUAGAUUGCAUCGGUUUAAAAGGCAAGACCGUCAAAUUGCGGGAAAGGGGUCAACAGCCGUUCAGUACCAAGUCUCAGGGGAAACUUUGAGAUGGCCUUGCAAAGGGUAUGGUAAUAAGCUGACGGACAUGGUCCUAACCACGCAGCCAAGUCCUAAGUCAACAGAUCUUCUGUUGAUAUGGAUGCAGUUCACAGACUAAAUGUCGGUCGGGGAAGAUGUAUUCUUCUCAUAAGAUAUAGUCGGACCUCUCCUUAAUGGGAGCUAGCGGAUGAAGUGAUGCAACACUGGAGCCGCUGGGAACUAAUUUGUAUGCGAAAGUAUAUUGAUUAGUUUUGGAGUACUCGUGGUCG
# How it was run: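 Pooled colonies went to amplicon sequencing on an Illumina HiSeq 2500 after six replicate transformations. The plates were LB agar with 100 μg/mL carbenicillin, 50 μM IPTG and 0.2% rhamnose, with or without 25 μg/mL kanamycin, incubated overnight at 37°C or 30°C. The E. coli BL21(DE3) library had all eight P1ex-region intron nucleotides randomised, the intron placed in the knt kanamycin-resistance gene on pET-22b(+). DiMSum fitness is the error-weighted combination of replicate fold changes, kanamycin against none, normalised to wild type.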
Sequence,self-splicing fitness (ln) (30 °C),self-splicing fitness (ln) (37 °C)
GAAGAGCAAUAUUACGAAGU,-3.98 ± 0.42,-2.85 ± 0.3
GAAGAGCAAUAUUACGACAA,,-2.02 ± 0.38
GAAGAGCAAUAUUACGAUAA,-3.7 ± 0.29,-2.11 ± 0.22
GAAGAGCAAUAUUACGAUAG,-3.04 ± 0.24,-2.14 ± 0.29
GAAGAGCAAUAUUACGAUGC,-2.13 ± 0.16,-1.9 ± 0.18
GAAGAGCAAUAUUACGCACU,-2.39 ± 0.17,-1.33 ± 0.18
GAAGAGCAAUAUUACGCAGU,-2.47 ± 0.2,-2.38 ± 0.23
GAAGAGCAAUAUUACGCGCA,-1.11 ± 0.2,-1.35 ± 0.14
GAAGAGCAAUAUUACGCUAC,-3.19 ± 0.25,
GAAGAGCAAUAUUACGCUGA,,-2.3 ± 0.28
GAAGAGCAAUAUUACGGAAG,-2.81 ± 0.2,-2.59 ± 0.44
GAAGAGCAAUAUUACGGAUC,-1.1 ± 0.071,-1.1 ± 0.09
GAAGAGCAAUAUUACGGGUA,-2.6 ± 0.19,-1.89 ± 0.15
GAAGAGCAAUAUUACGUAAC,-1.31 ± 0.12,-1.54 ± 0.21
GAAGAGCAAUAUUACGUCCA,-3.13 ± 0.4,
GAAGAGCAAUAUUACGUGAA,-2.94 ± 0.15,-2.03 ± 0.17
GAAGAGCAAUAUUACGUGGU,-4.07 ± 0.23,-3.01 ± 0.32
GAAGAGCAAUAUUACGUUGG,-3.53 ± 0.18,-2.34 ± 0.16
GAAUAGCAAUAUUACGAAAU,-1.3 ± 0.1,-1.6 ± 0.13
GAAUAGCAAUAUUACGACAC,-0.0325 ± 0.3,-0.0524 ± 0.23
GAAUAGCAAUAUUACGACAU,-0.389 ± 0.012,0.00512 ± 0.033
GAAUAGCAAUAUUACGACGC,0.293 ± 0.13,-0.0831 ± 0.16
GAAUAGCAAUAUUACGAGAC,,-0.147 ± 0.18
GAAUAGCAAUAUUACGAGGC,-3.58 ± 0.38,-2.2 ± 0.3
GAAUAGCAAUAUUACGAGGG,-3.39 ± 0.18,-3.25 ± 0.19

Sequence,self-splicing fitness (ln) (30 °C),self-splicing fitness (ln) (37 °C)
GAAUAGCAAUAUUACGAUAC,-1.47 ± 0.15,-0.123 ± 0.17
GAAUAGCAAUAUUACGAUGA,-1.2 ± 0.083,-0.62 ± 0.093
GAAUAGCAAUAUUACGAUUG,-1.4 ± 0.1,-0.331 ± 0.13
GAAUAGCAAUAUUACGCAGA,-2.53 ± 0.16,-1.34 ± 0.14
GAAUAGCAAUAUUACGCCAU,,-1.49 ± 0.36
GAAUAGCAAUAUUACGCGCU,-0.615 ± 0.13,-0.0137 ± 0.15
GAAUAGCAAUAUUACGGAGA,-3.11 ± 0.47,-2.56 ± 0.45
GAAUAGCAAUAUUACGGAGU,-2.02 ± 0.18,-2.03 ± 0.23
GAAUAGCAAUAUUACGGCUU,0.268 ± 0.075,0.303 ± 0.11
GAAUAGCAAUAUUACGGGAU,-2.06 ± 0.13,-2.06 ± 0.16
GAAUAGCAAUAUUACGGUCC,-2.78 ± 0.24,-0.862 ± 0.25
GAAUAGCAAUAUUACGGUGG,-3.06 ± 0.24,-1.08 ± 0.12
GAAUAGCAAUAUUACGUAGU,-2.61 ± 0.12,-1.99 ± 0.18
GAAUAGCAAUAUUACGUCCC,-1.33 ± 0.12,-0.165 ± 0.17
GAAUAGCAAUAUUACGUCGU,-2 ± 0.12,-1.35 ± 0.14
GACAAGCAAUAUUACGACUC,0.206 ± 0.1,0.387 ± 0.12
GACAAGCAAUAUUACGAGAG,-3.18 ± 0.17,-2.96 ± 0.21
GACAAGCAAUAUUACGAGCU,-1.28 ± 0.08,-0.288 ± 0.11
GACAAGCAAUAUUACGAUGC,-1.44 ± 0.091,-0.732 ± 0.11
GACAAGCAAUAUUACGCAGU,-3.47 ± 0.35,-1.85 ± 0.22
GACAAGCAAUAUUACGCAUC,-4.33 ± 0.28,-3.91 ± 0.42
GACAAGCAAUAUUACGCGAA,-2.8 ± 0.16,-1.88 ± 0.14
GACAAGCAAUAUUACGCGGU,-3.2 ± 0.24,-2.48 ± 0.24
GACAAGCAAUAUUACGCGUC,-4.02 ± 0.22,-3.45 ± 0.39
GACAAGCAAUAUUACGCUCC,-3.8 ± 0.24,-2.56 ± 0.27

Sequence,self-splicing fitness (ln) (30 °C),self-splicing fitness (ln) (37 °C)
GACAAGCAAUAUUACGGAAU,-1.92 ± 0.11,-1.35 ± 0.12
GACAAGCAAUAUUACGGCCC,-0.324 ± 0.16,0.203 ± 0.28
GACAAGCAAUAUUACGGCUU,-0.995 ± 0.068,-0.505 ± 0.1
GACAAGCAAUAUUACGGGCU,-1.63 ± 0.087,-1.39 ± 0.097
GACAAGCAAUAUUACGGGGA,-3.05 ± 0.12,-1.75 ± 0.1
GACAAGCAAUAUUACGUACU,-1.16 ± 0.059,-0.397 ± 0.079
GACAAGCAAUAUUACGUCGC,-3.86 ± 0.25,-2.1 ± 0.21
GACAAGCAAUAUUACGUCUA,-2.01 ± 0.079,-1.04 ± 0.082
GACAAGCAAUAUUACGUGCA,-0.912 ± 0.06,0.0273 ± 0.077
GACAAGCAAUAUUACGUGCU,-2.93 ± 0.082,-1.82 ± 0.078
GACAAGCAAUAUUACGUUAC,-3.32 ± 0.15,-2.36 ± 0.17
GACAAGCAAUAUUACGUUCC,-3.15 ± 0.24,-2.8 ± 0.31
GACCAGCAAUAUUACGAAGC,-0.849 ± 0.062,-0.511 ± 0.093
GACCAGCAAUAUUACGACAC,-0.384 ± 0.065,-0.0663 ± 0.085
GACCAGCAAUAUUACGACAG,-3.85 ± 0.18,-2.22 ± 0.18
GACCAGCAAUAUUACGACGG,-2.67 ± 0.15,-1.99 ± 0.18
GACCAGCAAUAUUACGACUA,-0.158 ± 0.056,-0.0882 ± 0.062
GACCAGCAAUAUUACGAGUC,-3.82 ± 0.23,-2.06 ± 0.18
GACCAGCAAUAUUACGAGUG,-0.669 ± 0.055,-0.33 ± 0.084
GACCAGCAAUAUUACGAUAC,-0.984 ± 0.056,-0.634 ± 0.066
GACCAGCAAUAUUACGCAUG,-1.2 ± 0.073,-1.65 ± 0.09
GACCAGCAAUAUUACGCUAG,-1.29 ± 0.087,-0.88 ± 0.1
GACCAGCAAUAUUACGGCAC,-0.0527 ± 0.076,0.491 ± 0.11
GACCAGCAAUAUUACGGCAG,-3.74 ± 0.3,-3.28 ± 0.25
GACCAGCAAUAUUACGGCCA,-0.323 ± 0.077,0.208 ± 0.13

Sequence,self-splicing fitness (ln) (30 °C),self-splicing fitness (ln) (37 °C)
GACCAGCAAUAUUACGGCGG,-2.55 ± 0.2,-2.79 ± 0.27
GACCAGCAAUAUUACGGGGU,-3.79 ± 0.19,-1.82 ± 0.14
GACCAGCAAUAUUACGGUCG,-1.98 ± 0.077,-1.47 ± 0.11
GACCAGCAAUAUUACGGUCU,-3.61 ± 0.17,-3.16 ± 0.21
GACCAGCAAUAUUACGUAAC,-0.981 ± 0.065,-0.475 ± 0.079
GACCAGCAAUAUUACGUAAG,-1.55 ± 0.052,-0.817 ± 0.076
GACCAGCAAUAUUACGUACA,-0.568 ± 0.067,0.0774 ± 0.083
GACCAGCAAUAUUACGUAUC,-0.803 ± 0.1,-0.659 ± 0.11
GACCAGCAAUAUUACGUCCG,-4.09 ± 0.27,-2.12 ± 0.17
GACCAGCAAUAUUACGUCUA,-1.44 ± 0.085,-0.724 ± 0.081
GACCAGCAAUAUUACGUUCA,-0.884 ± 0.1,-0.163 ± 0.097
GACCAGCAAUAUUACGUUGC,-1.78 ± 0.067,-1.56 ± 0.1
GACGAGCAAUAUUACGACGC,-0.758 ± 0.13,-0.747 ± 0.15
GACGAGCAAUAUUACGAGUC,-3.37 ± 0.2,-2.85 ± 0.31
GACGAGCAAUAUUACGAGUG,-4.04 ± 0.31,-2.63 ± 0.19
GACGAGCAAUAUUACGAUAU,-3.83 ± 0.33,-2.15 ± 0.32
GACGAGCAAUAUUACGAUUA,-2.73 ± 0.23,-1.55 ± 0.22
GACGAGCAAUAUUACGCACA,-2.32 ± 0.15,-0.917 ± 0.14
GACGAGCAAUAUUACGCACU,-1.32 ± 0.15,-0.506 ± 0.16
GACGAGCAAUAUUACGCCUG,,-1.56 ± 0.47
GACGAGCAAUAUUACGCUUU,-3.17 ± 0.46,-0.0656 ± 0.19
GACGAGCAAUAUUACGGAAA,-2.69 ± 0.3,-1.47 ± 0.29

# — the supplement of paper PMC7877785
